The results in this text go back to publication PMC4705658.

One series deals with T1, Gbp2 RRM2 (Saccharomyces cerevisiae, UniProt P25555 219-316).
T1 sequence: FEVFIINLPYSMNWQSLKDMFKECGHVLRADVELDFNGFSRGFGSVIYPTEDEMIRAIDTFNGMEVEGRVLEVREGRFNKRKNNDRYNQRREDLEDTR
In words: fluorescence anisotropy. (In fluorescence polarisation assays a small probe gives low polarisation when free and higher when bound to something large.)

The target of series [1] is T2, Gbp2 RRM3 (Saccharomyces cerevisiae, UniProt P25555 330-427).
T2 sequence: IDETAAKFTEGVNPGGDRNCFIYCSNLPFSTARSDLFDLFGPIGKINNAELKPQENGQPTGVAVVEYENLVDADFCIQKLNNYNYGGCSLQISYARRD
The series can be described thus: fluorescence anisotropy.

The target in another series is T3, Gbp2 RRM12 (Saccharomyces cerevisiae, UniProt P25555 122-316).
T3 sequence: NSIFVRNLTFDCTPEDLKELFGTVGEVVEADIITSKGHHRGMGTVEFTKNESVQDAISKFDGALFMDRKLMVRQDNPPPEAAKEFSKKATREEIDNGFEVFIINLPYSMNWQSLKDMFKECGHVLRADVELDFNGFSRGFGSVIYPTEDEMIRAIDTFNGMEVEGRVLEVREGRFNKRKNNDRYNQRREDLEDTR
The series can be described thus: fluorescence anisotropy.

For another series, the target named is T4, Gbp2 RRM123 (Saccharomyces cerevisiae, UniProt P25555 122-427).
T4 sequence: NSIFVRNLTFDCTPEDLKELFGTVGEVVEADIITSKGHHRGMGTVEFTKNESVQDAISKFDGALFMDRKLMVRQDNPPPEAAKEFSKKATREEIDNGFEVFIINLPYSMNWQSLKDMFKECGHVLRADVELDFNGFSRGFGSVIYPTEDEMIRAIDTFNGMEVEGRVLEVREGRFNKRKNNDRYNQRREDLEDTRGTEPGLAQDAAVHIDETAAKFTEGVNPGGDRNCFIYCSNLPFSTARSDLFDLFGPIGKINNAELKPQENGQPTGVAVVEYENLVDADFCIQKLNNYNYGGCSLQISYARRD
In words: fluorescence anisotropy.

Series [2] addresses T2, Gbp2 RRM3. The series can be described thus: NMR HSQC titration.
Another series has as its target T5, Hrb1 RRM2 (Saccharomyces cerevisiae, UniProt P38922 261-338).
T5 sequence: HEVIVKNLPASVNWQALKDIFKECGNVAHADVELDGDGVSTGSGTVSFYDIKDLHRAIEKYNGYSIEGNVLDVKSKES
In words: fluorescence EMSA. A general note: Mobility shift assays separate free from complexed probe on a gel.

As to UUGGUGUU (ssRNA) [Selex RNA UUGGUGUU], the figures for the Kd with Gbp2 RRM2, in the series with Gbp2 RRM12 and with Gbp2 RRM123 were 54 ± 4 µM, 5.5 ± 0.7 µM and 3.3 ± 0.8 µM, respectively. Besides, the binding result in the series with Gbp2 RRM3 [1] was “no binding”.
For the molecule UUUUUUUUUUUU (ssRNA) [U12], the binding result with Gbp2 RRM3 [2] is “no binding”.
In the case of GTGGTGGGTGGGTGTGTGTGGGTGTGGTGGGTGTGTGGGTGTG (ssDNA) [TG-43], the Kd with Gbp2 RRM123 was roughly 0.059 µM. The binding result with Hrb1 RRM2 is listed as “no binding”.
For the molecule TTGGTGTT (ssDNA) [d(TTGGTGTT)], the equilibrium dissociation constant (Kd) with Gbp2 RRM2 was found to be 310 ± 90 µM; in the series with Gbp2 RRM12 it was 24 ± 2 µM; with Gbp2 RRM123, 17 ± 2 µM. Also, the binding result in the series with Gbp2 RRM3 [1] is listed as “no binding”.
As for AAAAAAAAAAAA (ssRNA) [A12], the binding result with Gbp2 RRM3 [2] is “no binding”.

The term Kd denotes the constant that tells how readily two partners part at equilibrium. Read a high Kd as a looser complex.
